Reference: publication PMC3795964 (Journal of molecular biology, 2013)

B1: GST-Yra1 C (domain or fragment, S. cerevisiae, UniProt Q12159 124-226, looked up)
chain: ITFKNGELARRAVERFNGSPIDGGRSRLRLNLIVDPNQRPVKSLADRIKAMPQKGGNAPRPVKRGPNRKAAMAKSQNKPKREKPAKKSLEDLDKEMADYFEKK
B2: GST-tagged Yra1 (full length) (natural protein, S. cerevisiae, UniProt Q12159 1-226, looked up)
chain: MSANLDKSLDEIIGSNKAGSNRARVGGTRGNGPRRVGKQVGSQRRSLPNRRGPIRKNTRAPPNAVARVAKLLDTTREVKVNVEGLPRDIKQDAVREFFASQVGGVQRVLLSYNERGQSTGMANITFKNGELARRAVERFNGSPIDGGRSRLRLNLIVDPNQRPVKSLADRIKAMPQKGGNAPRPVKRGPNRKAAMAKSQNKPKREKPAKKSLEDLDKEMADYFEKK

Biological target: 6XHIS-tagged Dbp2 (S. cerevisiae, UniProt P24783 1-546)
Experiment: pull-down

Sequence of 6XHIS-tagged Dbp2 (P24783 whole entry): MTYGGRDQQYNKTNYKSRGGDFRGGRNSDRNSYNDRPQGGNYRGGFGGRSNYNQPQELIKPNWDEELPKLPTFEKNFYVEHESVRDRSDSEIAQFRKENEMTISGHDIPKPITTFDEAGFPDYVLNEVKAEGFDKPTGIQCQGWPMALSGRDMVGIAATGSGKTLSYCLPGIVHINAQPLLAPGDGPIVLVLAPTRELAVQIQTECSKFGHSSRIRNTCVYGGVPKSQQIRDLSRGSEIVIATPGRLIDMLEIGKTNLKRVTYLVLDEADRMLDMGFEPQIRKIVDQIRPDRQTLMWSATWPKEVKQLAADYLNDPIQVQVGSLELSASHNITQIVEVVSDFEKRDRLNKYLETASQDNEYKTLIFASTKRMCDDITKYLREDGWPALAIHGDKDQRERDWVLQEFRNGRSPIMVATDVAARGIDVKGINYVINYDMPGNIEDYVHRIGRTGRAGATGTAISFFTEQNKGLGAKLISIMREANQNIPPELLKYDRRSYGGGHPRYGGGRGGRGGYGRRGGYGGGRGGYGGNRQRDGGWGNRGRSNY

Binder	binding result
B1	binds
B2	binds
